Molecular target: monoacetylated histone H3 peptide …(AcK)APRKQL, acetylated on lysine-14
Test: cell-based or functional assay

monoacetylated histone H3 peptide …(AcK)APRKQL, acetylated on lysine-14, sequence (peptide, as listed by the source): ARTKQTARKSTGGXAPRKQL

Km, deacetylation of acetylated H3 peptide, charcoal-binding assay	V/K, deacetylation of acetylated H3 peptide, charcoal-binding assay	Substance
0.28 µM	718000 M⁻¹ s⁻¹	recombinant yeast Hst2p (from UniProt P53686 1-357) (enzyme)
54.2 µM	3930 M⁻¹ s⁻¹	recombinant human SIRT2 (6xHis-tagged, with factor Xa cleavage site, purified from E. coli) (from UniProt Q8IXJ6 1-389) (enzyme)
